In test [1] the target is T1, human CCR8 (human, UniProt P51685 1-355). Briefly: cell-based or functional assay.
Test [2] addresses T1, human CCR8. The experiment in a line: cell-based or functional assay. This is another data set of the same source.
The target in test [3] is T2, rabbit CCR8 (rabbit).
T2 construct: Transiently expressed on HEK293 cells; also called HEK293-rabbit CCR8 cells; rabbit CCR8+ cells
T2 chain: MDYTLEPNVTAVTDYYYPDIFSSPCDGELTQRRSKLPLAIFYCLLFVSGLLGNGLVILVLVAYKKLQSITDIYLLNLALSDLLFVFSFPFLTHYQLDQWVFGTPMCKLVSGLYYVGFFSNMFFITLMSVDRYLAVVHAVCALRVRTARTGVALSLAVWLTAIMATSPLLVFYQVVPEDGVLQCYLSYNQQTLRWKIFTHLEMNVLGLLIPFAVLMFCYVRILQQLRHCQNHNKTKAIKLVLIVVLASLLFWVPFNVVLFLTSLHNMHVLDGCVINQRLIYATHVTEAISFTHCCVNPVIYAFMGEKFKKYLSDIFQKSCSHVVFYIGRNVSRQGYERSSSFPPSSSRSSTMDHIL
The experiment in a line: flow cytometry on HEK293-rabbit CCR8 cells. The method, then:
A lentiviral vector plasmid containing rabbit CCR8 was constructed by using a rabbit CCR8 cDNA (biosynthesized by GENEWIZ, Suzhou and having the amino acid sequence shown in SEQ ID NO. 112) as a template. The lentiviral vector plasmid containing rabbit CCR8 was transfected into HEK293 cells (hereinafter referred to HEK293-rabbit CCR8 cells) by using PEI MAX® (Polysciences 9002-98-6) as a transfection reagent referring to instructions of a transfection reagent. 24 hours after the transfection, 5×10⁴ HEK293-rabbit CCR8 cells were added per well in a 96-well U-shaped plate and centrifuged to discard the supernatant. 100 μL of a gradiently diluted h87D8 H2K4 e5 or anti-KLH isotype control antibody was added per well and the mixture was incubated on ice for 60 minutes. After the unbound primary antibody was washed away, 50 μL of a secondary antibody AlexaFluro647 anti-human IgG (Jackson Immuno Research #109-606-170) was added per well and the mixture was incubated on ice for 30 minutes. After the washing. […] Then excess secondary antibody was washed away with 0.5% BSA, the cells were resuspended by adding a PBS solution, and binding of the antibody to the cells was detected using a flow cytometer (Intellicyte iQue). The fluorescence value of a PI-negative cell population was analyzed. […]

Test [4] addresses T3, FcγRIIIAF158 (UniProt P08637 17-208).
T3 construct: F158 allotype; also called FcγRIIIA158F
Briefly: SPR (Biacore T200), antibody captured by anti-human IgG F(ab')2 on CM5, FcγRIIIA as analyte; FcγRIIIAF158. As to the method:
(§1) The affinities of the Fc function-enhanced humanized CCR8 antibodies to FcγRIIIAV158 and FcγRIIIAF158 were detected by using a surface plasmon resonance technology (SPR/Biacore T200). A coupling reagent Amine Coupling Kit (GE Healthcare BR-1000-50) was used to couple Goat Anti-Human IgG F(ab′)2 to the surface of a CM5 chip. h87D8 H2K4 e5 or h87D8 H2K4 was captured through high-affinity binding with the antibodies and then gradiently diluted FcγRIIIAV158 or FcγRIIIAF158 was injected in sequence. The binding time was set to be 120 seconds, the dissociation time was set to be 200 seconds, regeneration was performed for 30 seconds by 10 mM Glycine-HCl with the pH value of 1.75, and the flow rate was set to be […]. The measured data were fitted to obtain an equilibrium dissociation constant. The affinities of h87D8 H2K4 e5 or h87D8 H2K4 to FcγRIIIAV158 and FcγRIIIAF158 were respectively measured. […] The binding of h87D8 H2K4 e5 to FcγRIIIAV158 and FcγRIIIAF158 was stronger than that of h87D8 H2K4.
In general terms: Surface plasmon resonance follows binding to a sensor surface in real time, without labels.

In test [5] the target is T4, FcγRIIIAV158 (UniProt P08637 17-208).
T4 construct: V158 allotype; also called FcγRIIIA158V
Briefly: SPR (Biacore T200), antibody captured by anti-human IgG F(ab')2 on CM5, FcγRIIIA as analyte; FcγRIIIAV158. As to the method:
as §1

T1 sequence (P51685 whole entry): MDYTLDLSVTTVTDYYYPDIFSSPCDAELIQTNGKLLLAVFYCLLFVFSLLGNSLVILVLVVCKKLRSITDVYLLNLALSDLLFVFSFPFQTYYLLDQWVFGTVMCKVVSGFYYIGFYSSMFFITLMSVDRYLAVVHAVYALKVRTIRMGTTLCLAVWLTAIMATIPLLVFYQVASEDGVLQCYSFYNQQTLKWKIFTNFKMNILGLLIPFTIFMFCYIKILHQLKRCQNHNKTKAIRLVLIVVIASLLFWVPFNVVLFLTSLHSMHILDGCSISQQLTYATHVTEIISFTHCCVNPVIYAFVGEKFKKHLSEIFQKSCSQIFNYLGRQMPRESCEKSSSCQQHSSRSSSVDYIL
T3 sequence (P08637 17-208 limits assumed): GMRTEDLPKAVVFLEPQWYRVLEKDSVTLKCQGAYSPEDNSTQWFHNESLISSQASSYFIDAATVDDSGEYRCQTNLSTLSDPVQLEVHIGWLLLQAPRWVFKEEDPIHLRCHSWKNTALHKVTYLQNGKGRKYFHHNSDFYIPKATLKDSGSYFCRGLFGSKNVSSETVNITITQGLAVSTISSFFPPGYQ
T4 sequence (P08637 17-208 F176V limits assumed): as the sequence (P08637 17-208 limits assumed) above, with F160V counted along it

B1: h87D8 H2K4 hIgG1 e5 (antibody)
heavy: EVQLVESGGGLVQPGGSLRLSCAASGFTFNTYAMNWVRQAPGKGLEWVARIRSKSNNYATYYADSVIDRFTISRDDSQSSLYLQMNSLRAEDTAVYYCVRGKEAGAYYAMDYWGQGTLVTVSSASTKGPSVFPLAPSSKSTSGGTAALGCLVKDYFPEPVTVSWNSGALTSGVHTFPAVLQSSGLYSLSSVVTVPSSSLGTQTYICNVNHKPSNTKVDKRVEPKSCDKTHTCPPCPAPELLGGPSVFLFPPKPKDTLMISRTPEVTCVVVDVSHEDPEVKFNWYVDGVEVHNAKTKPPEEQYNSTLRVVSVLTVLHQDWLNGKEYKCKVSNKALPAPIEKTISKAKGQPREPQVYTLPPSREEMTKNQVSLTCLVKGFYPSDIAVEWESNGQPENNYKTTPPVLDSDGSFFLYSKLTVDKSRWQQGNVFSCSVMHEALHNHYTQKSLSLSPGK
light: DIVMTQSPLSLPVTPGEPASISCRSSKSLLHSNYNTYLYWFLQKPGQSPQLLIYRTSNLASGVPDRFSGSGSGTDFTLKISRVEAEDVGVYYCMQHLEYPLTFGQGTKLEIKRTVAAPSVFIFPPSDEQLKSGTASVVCLLNNFYPREAKVQWKVDNALQSGNSQESVTEQDSKDSTYSLSSTLTLSKADYEKHKVYACEVTHQGLSSPVTKSFNRGEC
notes: also called h87D8 H2K4 e5; h87D8H2K4e5; copies: 2 + 2
A word on the EC50: it is the concentration giving half of the maximal effect. Low values mean higher potency in that assay, high ones lower potency in that assay. The Kd is the free concentration of one partner at which half of the binding sites on the other are occupied at equilibrium, for simple one-to-one binding. Turning to B1, in test [1], the “ADCC half-maximal effective concentration EC50, NK92-CD16A effectors, HuT78 targets” value came out at 0.53 nM; the “ADCC maximal lysis rate, NK92-CD16A effectors, HEK293-hCCR8 targets” value is 61%; the “half-maximal effective concentration EC50 of inhibition of the Ca2+ current signal, CHO-hCCR8 cells, CCL1 stimulus” value turned out to be 5.2 nM. In test [2], the “ADCC EC50 (nM), PBMC FcγRIIIA158F/F effectors, HEK293-hCCR8 targets” value is 0.02 nM; the “ADCC EC50 (nM), PBMC FcγRIIIA158V/V effectors, HEK293-hCCR8 targets” value amounted to 0.01 nM; the “ADCC maximal lysis rate, PBMC FcγRIIIA158F/F effectors, HEK293-hCCR8 targets” value was 77%; the “ADCC maximal lysis rate, PBMC FcγRIIIA158V/V effectors, HEK293-hCCR8 targets” value amounted to 75%. The EC50 in test [3] is 0.21 nM. For the same molecule, in test [4], binding was characterised by a dissociation constant (Kd) of 433 nM. The affinity in test [5], expressed as Kd, was 270 nM.

The values are drawn from patent US20250215097A1 (BEIJING TIANNUOJIANCHENG PHARMA TECH, published 2025).
